Earlier results on three substances are cited in paper PMC11820823.

One data set addresses EphA8 Sam (Mus musculus) (UniProt O09127). Briefly: ITC.
Another data set concerns the target EphA2 Sam (Homo sapiens) (UniProt P29317).
The target of the next data set is EphA2 Sam (Mus musculus) (UniProt Q03145).
EphA2 Sam (Mus musculus), sequence (Q03145 902-972): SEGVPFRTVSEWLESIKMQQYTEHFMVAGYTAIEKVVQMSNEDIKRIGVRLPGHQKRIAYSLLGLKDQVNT

EphA8 Sam (Mus musculus), sequence (O09127 926-996): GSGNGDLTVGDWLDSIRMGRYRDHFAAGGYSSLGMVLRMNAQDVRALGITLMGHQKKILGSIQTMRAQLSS
SASH1 SH3-Sam1, sequence (P59808 547-690): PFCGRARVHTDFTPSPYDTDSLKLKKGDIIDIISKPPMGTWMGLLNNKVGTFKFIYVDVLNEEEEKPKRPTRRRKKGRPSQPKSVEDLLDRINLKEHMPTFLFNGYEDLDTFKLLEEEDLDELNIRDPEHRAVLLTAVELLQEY
Ship2 Sam, sequence (O15357 1193-1258): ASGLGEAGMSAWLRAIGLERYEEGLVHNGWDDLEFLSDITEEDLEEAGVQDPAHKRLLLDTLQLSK
SASH1 Sam1, sequence (P59808 623-693): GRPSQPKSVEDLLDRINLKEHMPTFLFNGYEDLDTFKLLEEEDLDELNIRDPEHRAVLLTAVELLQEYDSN
EphA2 Sam (Homo sapiens), sequence (P29317 901-971): as the sequence (Q03145 902-972) above, with V27A, S40T, E42D counted along it

As to SASH1 Sam1 (from UniProt P59808), in the data set with EphA8 Sam (Mus musculus), the Kd was 880 nM.
With Ship2 Sam (from UniProt O15357), the Kd with EphA2 Sam (Homo sapiens) was 750 nM.
As for SASH1 SH3-Sam1 (from UniProt P59808), the Kd was 2520 nM with EphA2 Sam (Mus musculus) and 1090 nM in the data set with EphA8 Sam (Mus musculus).
